Experimental findings from article PMC6102255, “EPO does not promote interaction between the erythropoietin and beta-common receptors” (Scientific Reports, 2018) are described below.

For data set [1], the target named is extracellular domains of the erythropoietin receptor (EPOR), in-house purified (UniProt P19235). The data set can be described thus: MST; EPOR labelled with DyLight 650 (30 nM), unlabelled EPOR titrated (0.05-1700 nM); 50 mM Tris, 10 mM MgCl2, 150 mM NaCl, 0.05% Tween 20, pH 7.5; 60% laser power; homodimer to monomers, no EPO.
Data set [2] deals with the molecule itself. The data set can be described thus: AUC; sedimentation velocity, 20 °C, 50,000 rpm, 10 mM HEPES, 500 mM NaCl pH 7.2; single proteins (EPO 3 μM; EPOR 1.5, 3, 6 μM; βc 0.75, 1.5, 3 μM) and mixtures of two (EPO + EPOR; βc + EPOR).

By Kd is commonly meant the concentration at which binding is half-saturated. The low end stands for a tighter complex, the high end for a looser complex. For the molecule “extracellular domains of the erythropoietin receptor (EPOR), in-house purified (from UniProt P19235 25-250) (domain or fragment)”, the dissociation constant (Kd) in data set [1] was 166 nM.

B1: extracellular regions of the beta-common (βc) receptor, in-house purified (domain or fragment, UniProt P32927 17-443, looked up)
chain: WERSLAGAEETIPLQTLRCYNDYTSHITCRWADTQDAQRLVNVTLIRRVNEDLLEPVSCDLSDDMPWSACPHPRCVPRRCVIPCQSFVVTDVDYFSFQPDRPLGTRLTVTLTQHVQPPEPRDLQISTDQDHFLLTWSVALGSPQSHWLSPGDLEFEVVYKRLQDSWEDAAILLSNTSQATLGPEHLMPSSTYVARVRTRLAPGSRLSGRPSKWSPEVCWDSQPGDEAQPQNLECFFDGAAVLSCSWEVRKEVASSVSFGLFYKPSPDAGEEECSPVLREGLGSLHTRHHCQIPVPDPATHGQYIVSVQPRRAEKHIKSSVNIQMAPPSLNVTKDGDSYSLRWETMKMRYEHIDHTFEIQYRKDTATWKDSKTETLQNAHSMALPALEPSTRYWARVRVRTSRTGYNGIWSEWSEARSWDTESVLPMW
modifications: biotin (EZ link sulfo-NHS biotin) when immobilised in SPR; unmodified otherwise
notes: beta common receptor (βc, shared subunit of the GM-CSF, IL-3 and IL-5 receptors), extracellular regions; Used in SEC, MST, SPR and AUC; Plasmid donated by Dr. Timothy Hercus; purification details are in the Supplementary data; also called βc homodimer; CD131
One may read the stoichiometry N as the number of molecules, sites or subunits per partner or assembly. Turning to B1, the “stoichiometry N” value in data set [2] is 2.
